Test results reported in IntAct's records for PubMed 33420071.

B1: Dual oxidase 1 (Homo sapiens), Q9NRD9 (parent)
chain: MGFCLALAWTLLVGAWTPLGAQNPISWEVQRFDGWYNNLMEHRWGSKGSRLQRLVPASYADGVYQPLGEPHLPNPRDLSNTISRGPAGLASLRNRTVLGVFFGYHVLSDLVSVETPGCPAEFLNIRIPPGDPMFDPDQRGDVVLPFQRSRWDPETGRSPSNPRDPANQVTGWLDGSAIYGSSHSWSDALRSFSRGQLASGPDPAFPRDSQNPLLMWAAPDPATGQNGPRGLYAFGAERGNREPFLQALGLLWFRYHNLWAQRLARQHPDWEDEELFQHARKRVIATYQNIAVYEWLPSFLQKTLPEYTGYRPFLDPSISSEFVAASEQFLSTMVPPGVYMRNASCHFQGVINRNSSVSRALRVCNSYWSREHPSLQSAEDVDALLLGMASQIAEREDHVLVEDVRDFWPGPLKFSRTDHLASCLQRGRDLGLPSYTKARAALGLSPITRWQDINPALSRSNDTVLEATAALYNQDLSWLELLPGGLLESHRDPGPLFSTIVLEQFVRLRDGDRYWFENTRNGLFSKKEIEEIRNTTLQDVLVAVINIDPSALQPNVFVWHKGDPCPQPRQLSTEGLPACAPSVVRDYFEGSGFGFGVTIGTLCCFPLVSLLSAWIVARLRMRNFKRLQGQDRQSIVSEKLVGGMEALEWQGHKEPCRPVLVYLQPGQIRVVDGRLTVLRTIQLQPPQKVNFVLSSNRGRRTLLLKIPKEYDLVLLFNLEEERQALVENLRGALKESGLSIQEWELREQELMRAAVTREQRRHLLETFFRHLFSQVLDINQADAGTLPLDSSQKVREALTCELSRAEFAESLGLKPQDMFVESMFSLADKDGNGYLSFREFLDILVVFMKGSPEEKSRLMFRMYDFDGNGLISKDEFIRMLRSFIEISNNCLSKAQLAEVVESMFRESGFQDKEELTWEDFHFMLRDHNSELRFTQLCVKGVEVPEVIKDLCRRASYISQDMICPSPRVSARCSRSDIETELTPQRLQCPMDTDPPQEIRRRFGKKVTSFQPLLFTEAHREKFQRSCLHQTVQQFKRFIENYRRHIGCVAVFYAIAGGLFLERAYYYAFAAHHTGITDTTRVGIILSRGTAASISFMFSYILLTMCRNLITFLRETFLNRYVPFDAAVDFHRLIASTAIVLTVLHSVGHVVNVYLFSISPLSVLSCLFPGLFHDDGSELPQKYYWWFFQTVPGLTGVVLLLILAIMYVFASHHFRRRSFRGFWLTHHLYILLYVLLIIHGSFALIQLPRFHIFFLVPAIIYGGDKLVSLSRKKVEISVVKAELLPSGVTHLRFQRPQGFEYKSGQWVRIACLALGTTEYHPFTLTSAPHEDTLSLHIRAAGPWTTRLREIYSAPTGDRCARYPKLYLDGPFGEGHQEWHKFEVSVLVGGGIGVTPFASILKDLVFKSSVSCQVFCKKIYFIWVTRTQRQFEWLADIIREVEENDHQDLVSVHIYITQLAEKFDLRTTMLYICERHFQKVLNRSLFTGLRSITHFGRPPFEPFFNSLQEVHPQVRKIGVFSCGPPGMTKNVEKACQLINRQDRTHFSHHYENF
partner: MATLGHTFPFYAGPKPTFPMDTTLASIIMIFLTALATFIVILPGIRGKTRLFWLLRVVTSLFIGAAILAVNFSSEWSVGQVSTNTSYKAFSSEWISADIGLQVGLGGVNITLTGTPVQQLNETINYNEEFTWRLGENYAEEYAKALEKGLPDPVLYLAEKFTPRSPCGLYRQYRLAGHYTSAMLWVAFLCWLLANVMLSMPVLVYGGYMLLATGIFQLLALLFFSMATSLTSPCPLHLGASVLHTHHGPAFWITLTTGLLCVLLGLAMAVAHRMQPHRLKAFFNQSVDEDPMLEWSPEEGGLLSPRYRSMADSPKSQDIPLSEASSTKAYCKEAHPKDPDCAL

Variants of: B1
Conditions: with doxa1_human DUOXA1, Q1HG43

effect of a mutation on the interaction | Variant
disrupting interaction strength | R50E
disrupting interaction strength | R507A
disrupting interaction strength | R507E
